Earlier results as cited in paper PMC10062658.

Target: PTH1R (Homo sapiens) (UniProt Q03431)
UniProt Q03431, sequence (Q03431 27-593): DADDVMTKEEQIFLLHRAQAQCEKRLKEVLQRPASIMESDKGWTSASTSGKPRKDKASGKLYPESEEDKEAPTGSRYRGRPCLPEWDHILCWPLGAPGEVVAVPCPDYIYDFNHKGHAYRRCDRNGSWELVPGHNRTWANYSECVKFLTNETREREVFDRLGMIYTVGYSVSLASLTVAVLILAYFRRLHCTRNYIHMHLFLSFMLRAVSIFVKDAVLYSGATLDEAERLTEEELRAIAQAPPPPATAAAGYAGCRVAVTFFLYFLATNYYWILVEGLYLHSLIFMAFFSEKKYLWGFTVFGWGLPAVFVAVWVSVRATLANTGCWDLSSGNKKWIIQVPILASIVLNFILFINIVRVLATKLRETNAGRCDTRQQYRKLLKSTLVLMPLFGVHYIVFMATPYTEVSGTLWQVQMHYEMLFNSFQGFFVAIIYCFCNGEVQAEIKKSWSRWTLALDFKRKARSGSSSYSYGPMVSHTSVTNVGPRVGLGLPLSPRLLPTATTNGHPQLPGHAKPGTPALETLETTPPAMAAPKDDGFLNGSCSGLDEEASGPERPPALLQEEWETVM

In the case of PTH (from UniProt P01270), the Kd is given as 1 nM.
